Test results as given in publication PMC4899112.

Target: VEGF (UniProt P15692)
Test: native MS

stoichiometry N: 2
Substance: VEGF (from UniProt P15692-4 1-191) (ligand)
